Measurements published in the Human Domainome abundance scans (Beltran et al. 2025).
± gives the uncertainty stated by the source.

B1: Homeobox protein cut-like 1, residues 941 to 1008; numbered along this chain, P39880 (parent)
chain: QEVDTIELTRQVKEKLAKNGICQRIFGEKVLGLSQGSVSDMLSRPKPWSKLTQKGREPFIRMQLWLNG

Variants of: B1
Assay: abundance fitness (aPCA) (normalised: wild type 0, dead -1); higher = more abundant; growth selection in yeast, the domain comes from the species named
Conditions: Homo sapiens
With K15R the abundance fitness was -0.096 ± 0.063. Variant D40T has an abundance fitness of -0.121 ± 0.072. With M62R the abundance fitness was -0.855 ± 0.077. For M62P, the abundance fitness was -0.93 ± 0.11. For M62C, the abundance fitness was -0.226 ± 0.081. M62I showed an abundance fitness of -0.346 ± 0.12. Work on M62D yielded an abundance fitness of -0.86 ± 0.11. I21T showed an abundance fitness of -0.197 ± 0.063. Variant I21P has an abundance fitness of -0.319 ± 0.071. For I21Y, the abundance fitness was 0.019 ± 0.098. I21F gave an abundance fitness of -0.115 ± 0.11. For Q1V, the abundance fitness was -0.201 ± 0.088. With Q1H the abundance fitness was -0.673 ± 0.14. In the case of G32I, the abundance fitness is reported as -0.584 ± 0.096. Work on G32E yielded an abundance fitness of -0.411 ± 0.11. G32M showed an abundance fitness of -0.226 ± 0.088. For G32L, the abundance fitness was -0.273 ± 0.054. G32T showed an abundance fitness of -0.29 ± 0.071. Work on W65E yielded an abundance fitness of -0.968 ± 0.12. Work on F59A yielded an abundance fitness of -0.813 ± 0.099. For F59G, the abundance fitness was -1.17 ± 0.13. For F59E, the abundance fitness was -0.431 ± 0.091. F59W showed an abundance fitness of -0.128 ± 0.084. F59I gave an abundance fitness of -0.525 ± 0.085. Work on L51I yielded an abundance fitness of -0.113 ± 0.15. For L51T, the abundance fitness was -0.745 ± 0.12. In the case of L51P, the abundance fitness is reported as -1.07 ± 0.14. With M41H the abundance fitness was -0.291 ± 0.14. Work on S49C yielded an abundance fitness of -0.237 ± 0.067. With S49I the abundance fitness was -0.43 ± 0.086. In the case of K13C, the abundance fitness is reported as -0.459 ± 0.13. Work on Q23Y yielded an abundance fitness of -0.162 ± 0.18. Q23D showed an abundance fitness of -0.429 ± 0.29. In the case of K18G, the abundance fitness is reported as -0.226 ± 0.056. K18H gave an abundance fitness of -0.412 ± 0.14. With K18W the abundance fitness was -0.272 ± 0.071. For K18N, the abundance fitness was -0.051 ± 0.12. Work on K18M yielded an abundance fitness of -0.059 ± 0.068. Variant R24I has an abundance fitness of -0.29 ± 0.12. With T52C the abundance fitness was -0.111 ± 0.086. Work on T52I yielded an abundance fitness of -0.009 ± 0.088. For T52H, the abundance fitness was -0.394 ± 0.16. Variant D4W has an abundance fitness of -0.552 ± 0.078. For D4E, the abundance fitness was -0.093 ± 0.068. With T5L the abundance fitness was -0.135 ± 0.045. K54F showed an abundance fitness of -0.199 ± 0.1. For K54E, the abundance fitness was 0.159 ± 0.093. For N67L, the abundance fitness was -0.128 ± 0.063. Variant N67C has an abundance fitness of -0.193 ± 0.092. With N67I the abundance fitness was -0.326 ± 0.095. Variant N67G has an abundance fitness of -0.04 ± 0.098. For N67V, the abundance fitness was -0.191 ± 0.1. Work on C22P yielded an abundance fitness of -0.069 ± 0.077. Variant C22W has an abundance fitness of -0.161 ± 0.071. C22E gave an abundance fitness of -0.155 ± 0.073. In the case of C22G, the abundance fitness is reported as -0.27 ± 0.053. E2V gave an abundance fitness of -0.16 ± 0.026. Variant V30F has an abundance fitness of -0.657 ± 0.29. With E14V the abundance fitness was -0.214 ± 0.067. With E14Y the abundance fitness was -0.418 ± 0.23. In the case of E14W, the abundance fitness is reported as -0.221 ± 0.053. With E14P the abundance fitness was 0.005 ± 0.07. In the case of S37M, the abundance fitness is reported as -0.126 ± 0.085. Variant S37T has an abundance fitness of -0.104 ± 0.075. K50N gave an abundance fitness of -0.221 ± 0.088. Variant K50D has an abundance fitness of 0.041 ± 0.12. With S34P the abundance fitness was 0.101 ± 0.069. Work on S34R yielded an abundance fitness of 0.02 ± 0.055. In the case of S34K, the abundance fitness is reported as 0.017 ± 0.068. Variant S34T has an abundance fitness of -0.196 ± 0.12. S34F showed an abundance fitness of 0.008 ± 0.091. Q53W gave an abundance fitness of -0.173 ± 0.084. Q53P gave an abundance fitness of 0.031 ± 0.073. For Q53E, the abundance fitness was -0.139 ± 0.061. V12P showed an abundance fitness of -0.008 ± 0.065. In the case of V12S, the abundance fitness is reported as -0.091 ± 0.059. For V12F, the abundance fitness was -0.289 ± 0.077. Work on R10G yielded an abundance fitness of -0.089 ± 0.047. R10S showed an abundance fitness of -0.111 ± 0.055. For R10F, the abundance fitness was -0.307 ± 0.098. Variant G55V has an abundance fitness of -0.01 ± 0.05. Work on G55Y yielded an abundance fitness of -0.104 ± 0.1. In the case of G55R, the abundance fitness is reported as -0.38 ± 0.062. For G55I, the abundance fitness was 0.093 ± 0.14. In the case of L66A, the abundance fitness is reported as -0.62 ± 0.089. Work on L66G yielded an abundance fitness of -0.884 ± 0.09. For L66N, the abundance fitness was -0.568 ± 0.11. Variant L31E has an abundance fitness of -0.486 ± 0.067. In the case of L31W, the abundance fitness is reported as -0.138 ± 0.063. K46G showed an abundance fitness of -0.315 ± 0.051. For K46Y, the abundance fitness was -0.059 ± 0.17. P58R gave an abundance fitness of -0.049 ± 0.054. Variant P58C has an abundance fitness of 0.099 ± 0.14. For P58W, the abundance fitness was -0.007 ± 0.083. For P58H, the abundance fitness was -0.135 ± 0.096. P58F gave an abundance fitness of 0.006 ± 0.079. Work on P58A yielded an abundance fitness of -0.102 ± 0.072. With G36A the abundance fitness was 0.067 ± 0.073. Work on G36S yielded an abundance fitness of -0.02 ± 0.053. In the case of G36M, the abundance fitness is reported as -0.058 ± 0.069. In the case of G36E, the abundance fitness is reported as 0.107 ± 0.084. Work on V3C yielded an abundance fitness of -0.486 ± 0.17. V3N gave an abundance fitness of -0.335 ± 0.1. For V3H, the abundance fitness was -0.199 ± 0.12. In the case of V3A, the abundance fitness is reported as -0.133 ± 0.061. Variant L33Y has an abundance fitness of -0.229 ± 0.078. In the case of L33I, the abundance fitness is reported as 0.144 ± 0.088. With L8Y the abundance fitness was -0.089 ± 0.089. L8M showed an abundance fitness of 0.019 ± 0.06. I6R showed an abundance fitness of -0.053 ± 0.045. In the case of I6G, the abundance fitness is reported as -0.049 ± 0.063. For E28F, the abundance fitness was -0.195 ± 0.091. In the case of E28P, the abundance fitness is reported as -0.145 ± 0.069. E28V gave an abundance fitness of -0.214 ± 0.056. Variant E28T has an abundance fitness of -0.041 ± 0.067. In the case of E28D, the abundance fitness is reported as -0.307 ± 0.11. N19M showed an abundance fitness of 0.017 ± 0.078. N19P gave an abundance fitness of 0.043 ± 0.072. With Q63C the abundance fitness was -0.441 ± 0.1. Q63W showed an abundance fitness of -0.032 ± 0.077. With Q63N the abundance fitness was -0.317 ± 0.11. For Q63E, the abundance fitness was -0.272 ± 0.061. In the case of Q63L, the abundance fitness is reported as -0.424 ± 0.052. In the case of R61N, the abundance fitness is reported as -0.041 ± 0.11. R61S gave an abundance fitness of -0.386 ± 0.065. G68W gave an abundance fitness of -0.624 ± 0.091. G68A gave an abundance fitness of -0.046 ± 0.085. For Q35F, the abundance fitness was 0.044 ± 0.13. For G20R, the abundance fitness was -0.048 ± 0.047. For G20W, the abundance fitness was -0.287 ± 0.079. G20A showed an abundance fitness of -0.135 ± 0.053. G20P showed an abundance fitness of -0.141 ± 0.075. Work on G27H yielded an abundance fitness of -0.184 ± 0.14. Variant G27K has an abundance fitness of -0.137 ± 0.088. Work on L16W yielded an abundance fitness of -0.194 ± 0.07. K29P gave an abundance fitness of -0.431 ± 0.071. With W48H the abundance fitness was -1.11 ± 0.16. In the case of W48S, the abundance fitness is reported as -0.817 ± 0.073. S43N showed an abundance fitness of 0.066 ± 0.1. For S43Y, the abundance fitness was -0.174 ± 0.083. Variant R44V has an abundance fitness of -0.175 ± 0.063. With V38S the abundance fitness was -0.086 ± 0.059. Variant V38H has an abundance fitness of -0.308 ± 0.11. Variant L64G has an abundance fitness of -0.074 ± 0.06. In the case of L64K, the abundance fitness is reported as 0.158 ± 0.064. L64Q gave an abundance fitness of 0.144 ± 0.082. Variant T9L has an abundance fitness of -0.405 ± 0.046. For T9S, the abundance fitness was -0.149 ± 0.053. With P45V the abundance fitness was -0.139 ± 0.063. Work on P45I yielded an abundance fitness of -0.147 ± 0.088. For P45H, the abundance fitness was -0.124 ± 0.079. P45C gave an abundance fitness of -0.123 ± 0.06. For P45A, the abundance fitness was -0.233 ± 0.084. For S39K, the abundance fitness was 0.039 ± 0.061. For S39P, the abundance fitness was -0.126 ± 0.069. Work on S39I yielded an abundance fitness of 0.037 ± 0.1. F26C showed an abundance fitness of -0.709 ± 0.099. For F26A, the abundance fitness was -0.649 ± 0.075. Variant F26R has an abundance fitness of -0.526 ± 0.056. For E57Y, the abundance fitness was -0.453 ± 0.096. In the case of E57H, the abundance fitness is reported as -0.213 ± 0.12. In the case of I60Y, the abundance fitness is reported as 0.004 ± 0.093. For A17H, the abundance fitness was -0.108 ± 0.11. A17C gave an abundance fitness of -0.154 ± 0.089. Variant A17F has an abundance fitness of -0.116 ± 0.12. I25K showed an abundance fitness of -0.022 ± 0.081. With I25V the abundance fitness was -0.008 ± 0.051.
